assay: soluble on expression in E. coli; label from the status in PepcDB or PDB records

Sequence | soluble on expression in E. coli
MYHNNNYGYNNHRGGGGFRHNNYNNNNNNHHHHYNNLPRINETQVPQSKHTIFIRGLHGDISTEEIKEYIGEKVGKISFDFVKVAQDKSKIFVAVRFENRDEAKEFMETYSDREFMGCRCDLSWFRDIRRYCAYQRAKQVRSNSQRRRRRSDSQESSKRSASPPVRRGRSKSRSRSRSPSRSRSRSRSRSVSRSKSPASRNGRVSRHRSRSQNRSRSRSNTRSRSRSSGRSGSAHSRKSDDVDSFDDESFDEKSRVKDNEARQKRRRELSDDDRKDVRETQPKKSVKEELPQIPLPPKTEAAASPSPAPPTPKASKSASFIPPPTADDMELESPPHVSNNQYEYQQSNNTYNQIRTGASPVSVSYSVPMEVEATPKMIVRETPQPAQPPVQVNSYYTTTPIQQQQQQQQPIPPQLPTACAPVCKYLTKIFRVETRYHIPRGANFHVCVIRFSPPQPPPTTPQPAFVPRQIGRIEIVMPSSLPAPVVSAAAASASAAAHPVAMNGSAISGGSSMPDITMHPNTNKLFGHLKAFQSALLSTVKYEPPARKEEDEAGFSTLRLSSLATEDDSADEEKAMVRELKLAKLNDEQMMRFHIKKKQLESAFRNDCETYAVVTRALLAKDESLQFGLKMALLENMEDLYKKMMQRVDDQLDALLVMA | not soluble
MSVARHTQILPSVLDRLLDDEPDQSHIESISLFELPQFKRALARDLEALLNTRLMPLDELMESFPQARDSLLTFGIPDLSGISLLNPDDRELLREQLRRSIELHEPRLSRVRVNLDAPREMERHLRFRVDAVLKVHPHRPPVTFDATLQLSSNVYKVQG | not soluble
MAHYPPSKDQLNELIQEVNQWAITNGLSMYPPKFEENPSNASVSPVTIYPTPIPRKCFDEAVQIQPVFNELYARITQDMAQPDSYLHKTTEALALSDSEFTGKLWSLYLATLKSAQYKKQNFRLGIFRSDYLIDKKKGTEQIKQVEFNTVSVSFAGLSEKVDRLHSYLNRANKYDPKGPIYNDQNMVISDSGYLLSKALAKAVESYKSQQSSSTTSDPIVAFIVQRNERNVFDQKVLELNLLEKFGTKSVRLTFDDVNDKLFIDDKTGKLFIRDTEQEIAVVYYRTGYTTTDYTSEKDWEARLFLEKSFAIKAPDLLTQLSGSKKIQQLLTDEGVLGKYISDAEKKSSLLKTFVKIYPLDDTKLGREGKRLALSEPSKYVLKPQREGGGNNVYKENIPNFLKGIEERHWDAYILMELIEPELNENNIILRDNKSYNEPIISELGIYGCVLFNDEQVLSNEFSGSLLRSKFNTSNEGGVAAGFGCLDSIILY | soluble
SDNGDWGHRLTHPVTLNVGGHLYTTSISTLQRYPDSMLGAMFRGDFPTTRDAQGNYFIDRDGTLFRYILNFLRTSELTLPVDFTELDLLRKEADFYQIEPLIQCLNDPKPLYPLDTFEQVVELSSTRKLSKYSNPVAVIITQLTITTKVHSLLEGISNNFTKWNKHMMDTRDCQVSFTFGPCDYHQEVSLRVHLMDYITKQGFTIRNTRVHHMSERANENTVEHHWTFCRLAYKVED | soluble
MAHHHHHHMGTLEAQTQGPGSMSFFLTTPAAIDLGVNIDHVATLRNARGTAYPDPVRAALAAEDAGADAITLHLREDRRHIVDADVRTLRPRVKTRMNLECAVTPEMLDIACEIRPHDACLVPEKRSELTTEGGLDVVGHFDAVRAACKQLADAGVRVSLFIDPDEAQIRAAHETGAPVIELHTGRYADAHDAAEQQREFERIATGVDAGIALGLKVNAGHGLHYTNVQAIAALPGIAELNIGHAIVAHAVFVGWDNAVREMKAIMVAARVAALHGGR | soluble
MKVMNIIHDSVVDGEGLRTVVFFAGCPHRCVGCHNPKSWNICNGTEMTVEEIVKEIASNPLTDVTFSSGDPFFQAAEVKKVAKIGKDLKKNLWMYTGYTLEEIQSSQNNDMIELLHYGDVLVDGRFEIEEKDLTLPFRGSSNQRIIRLKELEHHHHHH | not soluble
MKILNRLATDVGLMLRRPPRQQYAALCYRLSKSNPEPEVLLLTSRDTGRWVIPKGWPMANKKAHAVAEQEAYEEAGVKGTVEKAPFGYYEYEKKLNSGINVPCKVQVHLLEVSEMRDSFPEKDARRLEWVSPREAGKRVNEPELKALMLAFDKRMAHSQ | not soluble
MGSDKIHHHHHHMFTQVYEEIRQLTISKVLDFYDHEVRRLDEAARQTKYQKMSASPFLFFRGSSHLFYYDVTRIPLGFDTPPETPTWIQGDLHFENFGVHGNAKGEIIYDVNDFDEGYLGSYLYDLIRMAVSVQLFAEEAGYDAKPAIAAYVQHYLDDLRQYAKGKNPSKVCFTTDNTKGPIRKLIKKAEKKKAELLGERTTVVDGQRRFADLPDMKRLDSSAYTAIEAVWPEYIASIDAEDRQEDGFYAIKDIVYKLDSGTASIGLERYYILVEGTGGEHEDLILEMKQAQSSVPSLFVPAYLQEVETVHQGRRIVTSQKAMQAHEDPYLGYVTMHGKEYYVRERSPYKKKLKAKHIKSQDDLENVLSIQGQITAKIHARADMDAGVDVDILHHHADVVIIESIGVSDAEFIRQIQRWSSAYAARTTLDFQVFLSWLANR | not soluble
VKNSNGVREKDGKPFRVELYYAGSDTVRRDIAIEFSSQMKKLGLDFPTIASTWDEIETKLGDVSVVLGGGSAPYDLTIMAYEYLHTRTPSTGKWANPGDYGSEKLNALLDQARSEVDVEKRNNLWRKIQAEYVNNPSALNLVNIDHVYVGKKNDWKKPELLLEPHIHGVTWGPWWRISEWTK | not soluble
MGSDKIHHHHHHMEFIPPKRLLELIRQYSTTFENWHSVMLSIYLHKERIKCKLRNGQLLYLKPNEIVLLAGLKIVELNEDSVRFQFNGREICLKGWKLSYPGDSFSDYWRIDVRGKRVLDIGAGIGDSPIYFSIAGAKEVVAVEVDSKKVELMRENLKANSINNVIVVDKGVGIKDDENYISWPKLISNYGPFDVAKIDCDGCEKIIVPYIKEIPSLLIEWDYNYKDIVSNLTKNGYKVKVEHTLKNLGFIYAKKR | not soluble
MGSDKIHHHHHHLYVPLLIRQQYIRSGPDYRFSEPVSFLDIKQTFGFSHVRVGRWVTREESRIAANLVFDSLADLAFILKLPPLTLGLRQTLSLAFGHGGQKGVQAHYAPATRELALAKNAGAGALAHEFWHAFDHYIAPKAFNLSEGHFLCASDLWLADSPLIKHPLNLRLSEIFKVTLLSPDGKEPSDYVRRALALDKRYGTRYFSQPTEMMARAFEACIESYRDISNPYLVSGTSFSAMAKEGAYPDELHRQRIFTALLDYFEPLGIALAK | not soluble
MAKKTSSLLSRRRTRRPGEPPLDLGSIPWLGYALDFGKDAASFLTRMKEKHGDIFTILVGGRYVTVLLDPHSYDAVVWEPRTRLDFHAYAIFLMERIFDVQLPHYSPSDEKARMKLTLLHRELQALTEAMYTNLHAVLLGDATEAGSGWHEMGLLDFSYSFLLRAGYLTLYGIEALPRTHESQAQDRVHSADVFHTFRQLDRLLPKLARGSLSVGDKDHMCSVKSRLWKLLSPARLARRAHRSKWLESYLLHLEEMGVSEEMQARALVLQLWATQGNMGPAAFWLLLFLLKNPEALAAVRGELESILWQAEQPVSQTTTLPQKVLDSTPVLDSVLSESLRLTAAPFITREVVVDLAMPMADGREFNLRRGDRLLLFPFLSPQRDPEIYTDPEVFKYNRFLNPDGSEKKDFYKDGKRLKNYNMPWGAGHNHCLGRSYAVNSIKQFVFLVLVHLDLELINADVEIPEFDLSRYGFGLMQPEHDVPVRYRIRPHHHH | soluble
MGSDKIHHHHHHMKRVISLIDMDCFYAQVEQRDNPSLWGQPVIVVQHSRQGIEGGILAVSYEARPFGVKRGMTVAEAKLKCPQISICHVPIGEYVDKADIQKYRDASAEVFRVLNNYDSQIIIEKASVDEAFLDLSAYTNQKLQELRENEGLEEFLQAAITYLPTTHLATGEDVKENEHLREDVLLEYIENARNCTENLLLLIAAVTVEQIRQQIHEETQFFCSAGVGNNKMMAKLVCARHKPRQQTLIPWFYVREILRLTPIGDVRGFGGKMGNRIQEMLNITVRKRKYSKFQVIFRIFIEKLSEMSEICNFRRFYTIFKYFSLNLEIWKYSKKNQFFLAKKKEILRFSQLKIRKFEFPVTFYPRNPLMGELLEVDISQLIE | not soluble
MTAAMYDLMDYDEVLEKFDPVMGLEVHVELATETKMFSAPSAHFGAEPNSNVDPVSLGLPGALPVVNAKGVEWAIKIGLALNCKIAESSRFARKNYFYPDQPKNYQISQYDEPIAYDGYLDVVLDDGTPWRVEIERAHMEEDTGKLTHLGGADGRIHGATASLVDCNRAGIPLIEIVTKPIEGAGERAPEVARAYVGALRDLVKALGVSDARMDQGSMRCDANVSLRPVGTVEFGTRTETKNINSLKSVEQAVRYEMQRQAQVLEDGGEIVQETRHYQETDGSTSKGRPKETAEDYRYFNDPDLPPVIAPKEWVEEIRATLPELPWIRRARIQKEWGLKDEEMRDLVNAGALDLIVETVEAGASASEARSWWVAYLSQKANESGVELDSLSITPQQVARVAALVKEGKLTNKLARQAVDGVLAGEGDVDEVVAARGLEVVRDDGAIEKAVDEALAANPDIVEKYKAGNTKVTGAIVGAVMKATRGKADPAQVNKLIAEKLA | not soluble
MSLRRALIIDDEEAVLKIITHFIEMKDMPIKIVGKATSGDEAVDKIIGLEPDIVFIDIQMPIYNGLEVIEKTSHLSKKINFVVITAFNYFEYAQKALRLNVKDILLKPLDMKEFTKSVEKIIGYQYTNNDLLNEILEYINLNYSNDLKLNDCARLFLTNPSNISRIFKSNLNTTFISYLNHIRIEKSIELLENTTKSINEIAEIVGYNSLNNFYKNFKIEKGMTPKVYKLNTEGHHHHHH | not soluble
SMSDESVYKVLLLGAPGVGKSALARIFGGVEDGPEAEAAGHTYDRSIVVDGEEASLMVYDIWEQDGGRWLPGHCMAMGDAYVIVYSVTDKGSFEKASELRVQLRRARQTDDVPIILVGNKSDLVRSREVSVDEGRACAVVFDCKFIETSAALHHNVQALFEGVVRQIRLRRDSKEA | soluble
GAMVETKCPNLDIVTSSGEFHCSGCVEHMPEFSYMYWLAKDMKSDEDTKFIEHLGDGINEDETVRTTDGGITTLRKVLHVTDTNKFAHYRFTCVLTTLDGVSKKNIWLK | soluble
VAEKPYLKDPEVAAGYHRVAKRELPEPKIMEVPQRFAAYVRHEGYNRSIRNAWLILKAWASSENRDFSVQYGLHHSNPAWVELDKCRYVACMAIDKPLKVRGVVNQMTIPGGLHAVFRLTGVYGELLPQLSMVLEKWLPNSGFKQRSTPAYVHYHKNHFLSHDEAFELDFYLPISFF | not soluble
MIGAILAGGYGKRLKPITDSIPKALVEIKDNYTIMDRQLFDFSIMGIEAVYILSGYLGNKIEERYGSRYRDMNIYYLREEKPLGTLYSLRNLIDEVKDDDIVLRNGDTVTDVNFLNFLKKAQDQKYYITMYVTRMKSPFGIVETFGDQIVQFREKPELNHYINAGLYYIKSDAFPYFFEKYIDRDLETTVFPRMAREGLIGSYTEEAMWIGIDSEKDLERIRADYRNREDYPWGYLKVLYDDDRSRLLEYAIKAGSDTEIDCGDGCILRIQSGLGTFGDSSDEKFRNGDVRSISGKVRVNAFENTRLELIISKKLEHHHHHH | soluble
MSQVKRANENRETARFIKKHKKQVTNPIDEKNGTSNCIVRVPIALYVSLAPMYLENPLQGVMKQHLNPLVMKYNNKVGGVVLGYEGLKILDADPLSKEDTSEKLIKITPDTPFGFTWCHVNLYVWQPQVGDVLEGYIFIQSASHIGLLIHDAFNASIKKNNIPVDWTFVHNDGNRSLGHWVDSNGEPIDGKLRFTVRNVHTTGRVVSVDGTLIS | soluble
